B1: Translation initiation factor eIF2 assembly protein (Saccharomyces cerevisiae), Q05791 (parent)
chain: MSSQEYTTFIDIPVTRAQVEHCSYSFWSSLYPKYVPKSIVLKSLPKKFIQYLEQDGIKLPQEENSRSVYTEEIIRNEDNDYSDWEDDEDTATEFVQEVEPLIDFPELHQKLKDALNELGAVAPKLNWSAPRDATWILPNNTMKCNEVNELYLLLNASNYIMHDLQRAFKGCVDGDDIKGLKFDLVLRQWCDMNPALEFRVFVKNAHIVGATQRDLNYYDYLDELSDTFKDLIDEIVHDVVLPKFPDKSFVLDVYIPRPFNKIFIVDINPFARKTDSLLFSWNEIAAIAPPKNDVEDYELRLVTRHNTGRFASKEHSENHVPQDLVEASLNPEAIRELTQKWKELLSQQAKEESSDSENET

Variants of: B1
Conditions: with if2g_yeast GCD11, P32481
if2g_yeast GCD11, P32481, sequence (P32481 whole entry): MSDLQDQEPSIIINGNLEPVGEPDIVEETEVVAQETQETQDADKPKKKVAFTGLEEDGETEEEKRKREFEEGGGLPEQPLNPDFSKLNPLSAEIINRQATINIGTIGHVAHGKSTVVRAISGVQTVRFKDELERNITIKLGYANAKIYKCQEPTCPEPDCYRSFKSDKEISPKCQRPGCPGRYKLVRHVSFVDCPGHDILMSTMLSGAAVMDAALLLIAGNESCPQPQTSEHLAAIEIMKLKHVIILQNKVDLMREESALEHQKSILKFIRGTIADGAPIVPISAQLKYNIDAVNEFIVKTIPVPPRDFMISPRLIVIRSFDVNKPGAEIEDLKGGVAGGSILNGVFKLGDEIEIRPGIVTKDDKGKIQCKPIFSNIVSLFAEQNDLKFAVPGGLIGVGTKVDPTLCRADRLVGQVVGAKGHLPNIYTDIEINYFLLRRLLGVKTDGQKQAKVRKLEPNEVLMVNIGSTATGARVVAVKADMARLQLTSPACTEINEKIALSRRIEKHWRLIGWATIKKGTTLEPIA

| Variant | effect of a mutation on the interaction |
| --- | --- |
| D266A;I267A;N268A | decreasing interaction strength |

Reference: IntAct's records for PubMed 26211610
